In experiment [1] the target is GFP 1-9 OPT (Aequorea victoria). Briefly: split GFP complementation, sandwich format.
For experiment [2], the target named is sulfite reductase-GFP S11 wild type (Pyrobaculum aerophilum; Aequorea victoria). As to the kind of experiment: split GFP complementation in vitro, soluble lysate with excess purified fusion protein.

As to “(GFP S10 SM5)-L1-sulfite reductase-L2-(GFP S11 SM5)”, in experiment [1], the fold increase of complementation rate compared to the starting strand construct is 20 fold.

GFP 1-10 OPT: in experiment [2], the fold improvement of in vitro complementation relative to the same amount of refolded superfolder GFP 1-10 was 80 fold.

(Values after patent publication US20140141415A1.)
